Positions count from the first letter of the chain named.
T1: Mouse IL-18BP (amino acids 31-194), biotinylated (mouse, UniProt Q9Z0M9 29-193, biotin on the AviTag (BirA ligase))
T1 construct: also called mIL-18BP
T1 sequence: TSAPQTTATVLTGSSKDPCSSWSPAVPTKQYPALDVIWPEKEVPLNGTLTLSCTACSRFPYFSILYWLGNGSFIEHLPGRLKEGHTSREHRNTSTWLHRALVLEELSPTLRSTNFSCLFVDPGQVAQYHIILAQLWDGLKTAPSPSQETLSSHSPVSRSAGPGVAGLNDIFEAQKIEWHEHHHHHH

T2: Mouse IL-18Rα ectodomain (amino acids 19-329), biotinylated (mouse, UniProt Q61098 19-329, biotin on the AviTag (BirA ligase))
T2 construct: range 19-329; Secreted from Expi293 cells (H7 signal peptide removed); also called mIL-18Rα; mIL18Ra
T2 sequence: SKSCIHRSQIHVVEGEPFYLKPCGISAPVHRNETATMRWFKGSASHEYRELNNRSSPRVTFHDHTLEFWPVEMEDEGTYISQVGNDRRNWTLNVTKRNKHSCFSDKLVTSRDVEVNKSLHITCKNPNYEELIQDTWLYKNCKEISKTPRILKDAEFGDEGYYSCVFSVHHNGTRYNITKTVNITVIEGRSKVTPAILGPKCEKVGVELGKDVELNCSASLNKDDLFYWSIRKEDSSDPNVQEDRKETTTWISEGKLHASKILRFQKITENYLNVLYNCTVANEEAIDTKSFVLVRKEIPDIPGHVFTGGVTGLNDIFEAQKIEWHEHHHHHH

T3: Human IL-18BP (amino acids 31-194), biotinylated (human, UniProt O95998 31-194, biotin on the AviTag (BirA ligase) where used biotinylated)
T3 construct: Soluble decoy receptor; also called hIL-18BP; recombinant IL-18BP
T3 sequence: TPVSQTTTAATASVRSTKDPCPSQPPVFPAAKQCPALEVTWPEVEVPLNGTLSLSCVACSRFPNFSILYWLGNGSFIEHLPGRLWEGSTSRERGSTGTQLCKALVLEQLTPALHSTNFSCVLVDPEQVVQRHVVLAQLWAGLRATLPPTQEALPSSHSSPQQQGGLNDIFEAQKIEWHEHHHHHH

T4: Human IL-18Rα ectodomain (amino acids 19-329), biotinylated (human, UniProt Q13478 19-329, biotin on the AviTag (BirA ligase))
T4 construct: range 19-329; Secreted from insect cells (gp67 signal peptide removed); also called hIL-18Rα; hIL18Rα
T4 sequence: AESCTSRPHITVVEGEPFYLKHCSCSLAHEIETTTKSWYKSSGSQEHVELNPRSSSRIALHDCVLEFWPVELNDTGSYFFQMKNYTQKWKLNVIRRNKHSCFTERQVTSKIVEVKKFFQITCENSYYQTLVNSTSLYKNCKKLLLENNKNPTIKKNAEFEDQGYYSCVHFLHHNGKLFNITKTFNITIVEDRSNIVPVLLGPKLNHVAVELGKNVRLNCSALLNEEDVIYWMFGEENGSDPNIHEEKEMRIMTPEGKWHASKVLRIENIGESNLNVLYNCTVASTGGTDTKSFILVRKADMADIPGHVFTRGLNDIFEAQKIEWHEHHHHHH

B1: SEQ ID NO: 62 (murine DR-IL-18 variant mC1) (ligand)
chain: NFGRLHCTTAVIRNINDQVLFVDKRQPVFEDMTDIDQSASEPQTRLIIYAYVDRRLRGKAVTLSVKDSKMSTLSCKNKIISFEEMDPPENIDDIQSDLIFFQKKVPGHNKMEFESSLYEGHFLACQKEDDAFKLILKKKDENGDKSVMFTLTNLHQS
notes: Engineered variant
B2: SEQ ID NO: 39 (human DR-IL-18 variant hA8) (ligand)
chain: YFGKLESRLSVIRNLNDQVLFIDQGNRPLFEDMTDSDCRDNAPRTIFIISKYKDKQPRAQAVTISVKCEKISTLSCENKIISFKEMNPPDNIKDTKSDIIFFQRDVPGHKHKMQFESSSYEGYFLACEKERDLFKLILKKEDELGDRSIMFTIQNED
notes: Engineered variant
B3: SEQ ID NO: 87 (second generation human DR-IL-18 variant 6-31) (ligand)
chain: YFGKLESKLSVIRNLNDQVLFIDQGNRPLFEDMTDSDCRDNAPRTIFIISKYGDSGARGLAVTISVKCEKISTLSCENKIISFKEMNPPDNIKDTKSDIIFFERDVPGHSGKVQFESSSYEGYFLACEKERDLFKLILKKEDELGDRSIMFTVQNED
notes: Engineered variant; recombinant soluble analyte in SPR and cell assays
B4: SEQ ID NO: 57 (human DR-IL-18 variant hB9) (ligand)
chain: RFGKHESKLSVIRNLNDQVLFIDQGNRPLFEDMTDSDCRDNAPRTIFIISTYRDSQPRGKAVTISVKCEKISTLSCENKIISFKEMNPPDNIKDTKSDIIFFERNVPGHKYKMQFESSSYEGYFLACEKERDLFKLILKKEDELGDRSIMFTVQNED
notes: Engineered variant
B5: SEQ ID NO: 90 (second generation human DR-IL-18 variant 6-27) (ligand)
chain: B3 chain with G53S, G56R, E103A, D105S, S110G, G111R, V113T
notes: as for B3
B6: SEQ ID NO: 52 (human DR-IL-18 variant hH3) (ligand)
chain: B4 chain with H5L, K8R, R53K, E103Q, N105D, Y111H
notes: Engineered variant

What was measured:
[1] = biological target: T1, Mouse IL-18BP (amino acids 31-194), …; test: SPR; KD ratio relative to WT IL-18; SPR; ratio normalized to WT
Experimental: (§1) Experiments were conducted using a Biacore T100 and carried out at 25° C. Biotinylated IL-18Rα or IL-18BP were immobilized onto a Biacore biotin capture chip (Series S CAP sensor chip, GE Healthcare) to yield an Rmax of ˜50 RU (IL-18Rα) or ˜10 RU (IL-18BP). Measurements were made with serial dilutions of the IL-18 variants in HEPES buffered Saline-P+buffer (10 mM HEPES pH 7.4, 150 mM NaCl, 0.005% surfactant P20). The surface was regenerated by three 60-sec injections of regeneration buffer (3/4 (v/v) 8M guanidine hydrochloride with 1/4 (v/v) 1M sodium hydroxide). Experiments were performed in multiple channels simultaneously for increased observations. All data were analyzed with the Biacore T100 evaluation software version 2.0 with a 1:1 Langmuir binding model.

[2] = biological target: T1, Mouse IL-18BP (amino acids 31-194), …; test: yeast binding isotherms and SPR; members per FIG. 11A legend
Experimental: (§2) Individual colonies of IL-18 yeast were grown overnight at 30° C. in SDCAA liquid media and induced in SGCAA liquid media for 1 day at 20° C. IL-18 display levels on yeast were verified by flow cytometry using an anti-cMyc tag antibody (anti-myc-PE; Cell Signaling Technologies). Receptor staining with biotinylated IL-18Rα (with or without IL-18R β) or biotinylated IL-18BP was performed in PBS supplemented with 0.5% BSA and 2 mM EDTA (PBE) on ice. All analysis was performed on a Sony SA3800 flow cytometer.
as §1

[3] = biological target: T1, Mouse IL-18BP (amino acids 31-194), …; test: SPR; KD for IL-18BP over KD for IL-18Rα; SPR; ratio of two measured KD
Experimental: as §1

[4] = biological target: T1, Mouse IL-18BP (amino acids 31-194), …; test: on-yeast binding isotherms; 10 µM used for NBD; yeast-displayed variant; ratio computed with 10 µM put in for NBD
Experimental: as §2

[5] = biological target: T2, Mouse IL-18Rα ectodomain (amino acids …); test: SPR (Biacore T100), receptor captured via biotin, IL-18 as analyte
Experimental: as §1

[6] = biological target: T1, Mouse IL-18BP (amino acids 31-194), …; test: on-yeast binding isotherms; KD ratio relative to WT IL-18; yeast-displayed variant; ratio normalized to WT, from the 10 µM placeholder
Experimental: as §2

[7] = biological target: T1, Mouse IL-18BP (amino acids 31-194), …; test: SPR (Biacore T100), IL-18BP captured via biotin, IL-18 as analyte; SPR, soluble variant
Experimental: as §1

[8] = biological target: T2, Mouse IL-18Rα ectodomain (amino acids …); test: on-yeast binding isotherm (flow cytometry)
Experimental: as §2

[9] = biological target: T3, Human IL-18BP (amino acids 31-194), …; test: on-yeast binding isotherms; 20 µM used for NBD; yeast-displayed variant; ratio computed with 20 µM put in for NBD
[10] = biological target: T3, Human IL-18BP (amino acids 31-194), …; test: on-yeast binding isotherms; KD ratio relative to WT IL-18; yeast-displayed variant; ratio normalized to WT, from the 20 µM placeholder
[11] = biological target: T4, Human IL-18Rα ectodomain (amino acids …); test: SPR (Biacore T100), hIL-18Rα as surface ligand, 1:1 Langmuir
Experimental: (§3) Surface Plasmon Resonance (SPR) was used to perform biophysical affinity measurements of second generation DR-IL-18 variants (binding to IL-18R vs IL-18BP). Experiments were conducted using a Biacore T100 instrument and carried out at 25° C. Biotinylated IL-18Rα or IL-18BP were immobilized onto a Biacore biotin capture chip (Series S CAP sensor chip, GE Healthcare) to yield an Rmax of ˜50 RU (IL-18Rα) or ˜10 RU (IL-18BP). Measurements were made with serial dilutions of the IL-18 variants in HEPES buffered Saline-P+ buffer (10 mM HEPES pH 7.4, 150 mM NaCl, 0.005% surfactant P20). The surface was regenerated by three 60-sec injections of regeneration buffer (3/4 (v/v) 8M guanidine hydrochloride with ¼ (v/v) 1M sodium hydroxide). Experiments were performed in multiple channels simultaneously for increased observations. All data were analyzed with the Biacore T100 evaluation software version 2.0 with a 1:1 Langmuir binding model.

[12] = biological target: T3, Human IL-18BP (amino acids 31-194), …; test: on-yeast binding isotherms; 20 µM used for NBD; printed without '>'; yeast-displayed variant; ratio computed with 20 µM put in for NBD
[13] = biological target: T4, Human IL-18Rα ectodomain (amino acids …); test: SPR (Biacore T100), hIL-18Rα as surface ligand; Exp 1
Experimental: as §3

[14] = biological target: T4, Human IL-18Rα ectodomain (amino acids …); test: SPR
[15] = biological target: T4, Human IL-18Rα ectodomain (amino acids …); test: SPR, apparent KD, first value of the cell
Experimental: as §3

[16] = biological target: T4, Human IL-18Rα ectodomain (amino acids …); test: SPR, apparent KD, second value of the cell
Experimental: as §3

[17] = biological target: T4, Human IL-18Rα ectodomain (amino acids …); test: SPR (Biacore T100), hIL-18Rα as surface ligand; Exp 2
Experimental: as §3

[18] = biological target: T3, Human IL-18BP (amino acids 31-194), …; test: SPR; KD(IL-18BP)/KD(IL-18Rα) normalized to WT IL-18; SPR; ratio from the bound KD BP >10,000 nM
Experimental: as §3

[19] = biological target: T4, Human IL-18Rα ectodomain (amino acids …); test: on-yeast binding isotherm (flow cytometry), drawn summary table, IL18Rα (KD)
Experimental: as §2

[20] = biological target: T3, Human IL-18BP (amino acids 31-194), …; test: on-yeast binding isotherms; KD ratio relative to WT IL-18
[21] = biological target: T3, Human IL-18BP (amino acids 31-194), …; test: on-yeast binding isotherms; 20 µM used for NBD

Binder	Dissociation Constant Ratio normalized to WT IL-18 [10]	koff [11] [s⁻¹]	kon [11] [M⁻¹ s⁻¹]	KD ratio IL-18BP/IL-18Rα [12]	Kd [13] [nM]	Kd [14] [nM]	Kd [15] [nM]	Kd [16] [nM]	Kd [17] [nM]	IL-18 BP:Rα Dissociation Constant Ratio [18]	Kd [19] [nM]	Dissociation Constant Ratio normalized to WT IL-18 [20]	KD ratio IL-18BP/IL-18Rα [21]	further results
B1														Dissociation Constant Ratio normalized to WT IL-18 [1]: 1.44e+07; Kd [2]: > 1000 nM; KD ratio IL-18BP/IL-18Rα [3]: 26300; KD ratio IL-18BP/IL-18Rα [4]: > 233; Kd [5]: 1.09 nM; Dissociation Constant Ratio normalized to WT IL-18 [6]: > 1230; Kd [7]: 28.7 µM; Kd [8]: 43 nM
B2	> 1170													KD ratio IL-18BP/IL-18Rα [9]: > 347
B3	> 7200	0.00332	218000	> 490	19.4	19.4	15.2	19.4	15.2	> 1.06e+06	41			
B4												> 534	> 157	
B5	> 7000	0.00243	631000	> 480	3.48	3.5	3.9	3.5	3.85	> 5.86e+06	42			
B6												> 809	> 239	
